Measured values published in article PMC11592734.
pKd: −log10 of the molar value.

Columns and labels:
[1] = target: wild-type recombinant human cMyBP-C C0-C2 region (hC0-C2^WT) (human); test: solid-phase binding assay; 20 µM hC0-C2 incubated with increasing concentrations of hS2 (0-20 µM); binding of hS2 read by fluorescence intensity; Michaelis-Menten binding fit; n = 3
[2] = target: recombinant human cMyBP-C C0-C2 region with D389V (hC0-C2^D389V) (human); test: as above
[3] = target: wild-type recombinant human cMyBP-C C0-C2 region (hC0-C2^WT) (human); test: ITC; 20 µM hC0-C2 titrated against 350 µM hS2; n = 3
[4] = target: whole-length cardiac myosin isolated from mice hearts (mouse) (UniProt Q91Z83); test: co-sedimentation; whole-length cardiac myosin (10 µM) incubated with increasing concentration (0-10 µM) of hC0-C2; Michaelis-Menten binding fit
UniProt Q91Z83, sequence (Q91Z83 whole entry, chain 1 of 3): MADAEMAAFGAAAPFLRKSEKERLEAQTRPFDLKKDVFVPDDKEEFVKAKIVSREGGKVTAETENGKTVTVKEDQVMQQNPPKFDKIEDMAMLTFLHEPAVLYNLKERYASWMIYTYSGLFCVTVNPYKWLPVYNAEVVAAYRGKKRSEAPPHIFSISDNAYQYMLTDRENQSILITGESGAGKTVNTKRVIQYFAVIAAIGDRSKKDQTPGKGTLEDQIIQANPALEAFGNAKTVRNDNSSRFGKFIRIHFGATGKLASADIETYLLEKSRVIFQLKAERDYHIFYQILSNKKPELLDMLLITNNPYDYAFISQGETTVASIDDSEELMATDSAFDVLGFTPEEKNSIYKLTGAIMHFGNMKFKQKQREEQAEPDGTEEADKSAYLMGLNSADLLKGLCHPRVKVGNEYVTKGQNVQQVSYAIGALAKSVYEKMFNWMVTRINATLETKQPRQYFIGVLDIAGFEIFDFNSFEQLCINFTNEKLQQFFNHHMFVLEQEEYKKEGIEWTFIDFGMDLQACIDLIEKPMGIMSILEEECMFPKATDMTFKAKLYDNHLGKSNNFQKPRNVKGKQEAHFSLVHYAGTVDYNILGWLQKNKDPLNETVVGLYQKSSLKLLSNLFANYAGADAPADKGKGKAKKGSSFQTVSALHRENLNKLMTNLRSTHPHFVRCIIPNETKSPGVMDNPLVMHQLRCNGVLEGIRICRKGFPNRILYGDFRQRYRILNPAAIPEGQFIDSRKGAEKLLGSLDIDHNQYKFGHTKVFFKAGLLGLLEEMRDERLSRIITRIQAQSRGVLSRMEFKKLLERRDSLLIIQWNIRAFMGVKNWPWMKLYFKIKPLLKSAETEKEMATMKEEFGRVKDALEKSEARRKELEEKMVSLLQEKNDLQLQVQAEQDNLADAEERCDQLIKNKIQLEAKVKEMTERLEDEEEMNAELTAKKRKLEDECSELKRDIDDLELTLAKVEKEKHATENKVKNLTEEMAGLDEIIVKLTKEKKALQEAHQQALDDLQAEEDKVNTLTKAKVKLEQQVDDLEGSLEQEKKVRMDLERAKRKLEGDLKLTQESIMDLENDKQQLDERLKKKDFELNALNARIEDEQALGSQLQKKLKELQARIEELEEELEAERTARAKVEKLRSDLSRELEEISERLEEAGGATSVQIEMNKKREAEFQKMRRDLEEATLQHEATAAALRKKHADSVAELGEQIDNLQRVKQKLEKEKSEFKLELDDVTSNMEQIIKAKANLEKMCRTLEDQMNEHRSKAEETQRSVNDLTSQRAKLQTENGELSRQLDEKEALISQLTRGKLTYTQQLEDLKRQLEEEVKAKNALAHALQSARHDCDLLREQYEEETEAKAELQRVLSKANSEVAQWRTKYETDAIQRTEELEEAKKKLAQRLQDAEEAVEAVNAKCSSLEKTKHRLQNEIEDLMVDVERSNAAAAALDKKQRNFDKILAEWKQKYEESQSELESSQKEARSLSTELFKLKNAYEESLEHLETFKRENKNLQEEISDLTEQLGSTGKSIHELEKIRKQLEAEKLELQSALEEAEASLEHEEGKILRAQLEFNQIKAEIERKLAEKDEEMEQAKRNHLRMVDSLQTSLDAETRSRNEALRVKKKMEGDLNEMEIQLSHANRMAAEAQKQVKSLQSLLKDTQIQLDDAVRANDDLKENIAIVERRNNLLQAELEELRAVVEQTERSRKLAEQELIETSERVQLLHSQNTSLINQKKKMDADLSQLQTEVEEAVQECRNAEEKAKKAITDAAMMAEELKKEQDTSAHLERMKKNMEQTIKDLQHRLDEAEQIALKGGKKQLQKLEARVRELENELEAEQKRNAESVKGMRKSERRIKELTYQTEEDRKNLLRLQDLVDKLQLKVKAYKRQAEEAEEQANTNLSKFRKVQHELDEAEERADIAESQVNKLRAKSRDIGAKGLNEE
UniProt Q91Z83, sequence (P09542 2-204, chain 2 of 3, further chain): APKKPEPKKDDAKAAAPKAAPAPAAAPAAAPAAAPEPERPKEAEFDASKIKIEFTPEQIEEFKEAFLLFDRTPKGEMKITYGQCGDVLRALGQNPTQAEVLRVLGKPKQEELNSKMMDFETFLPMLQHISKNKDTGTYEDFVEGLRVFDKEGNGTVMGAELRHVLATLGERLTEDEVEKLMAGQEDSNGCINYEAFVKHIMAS
UniProt Q91Z83, sequence (P51667 2-166, chain 3 of 3, further chain): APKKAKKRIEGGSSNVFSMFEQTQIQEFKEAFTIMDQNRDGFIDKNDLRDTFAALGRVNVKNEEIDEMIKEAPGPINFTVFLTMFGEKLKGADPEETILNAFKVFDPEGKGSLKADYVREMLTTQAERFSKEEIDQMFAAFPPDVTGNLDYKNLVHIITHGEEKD

In the case of “recombinant proximal (126 residues) human myosin S2 (hS2) (domain or fragment)”, the pKd [1] was 5.31, the pKd [2] was 5.33 and the stoichiometry N [3] was 0.96.
For “recombinant human cMyBP-C C0-C2 region with D389V (hC0-C2^D389V) (domain or fragment)”, the pKd [4] was 6.05.
With “wild-type recombinant human cMyBP-C C0-C2 region (hC0-C2^WT) (domain or fragment)” the pKd [4] was 6.08.
